Patent US20050266009A1
Positions count from the first letter of the chain named.

How the values were obtained:
[1] = biological target: GPIb on human platelets (human) (UniProt P07359); experiment: FACS on platelets, PRP sample #2, 2 µg scFv; PRP sample #2, 2 µg scFv
[2] = biological target: T1, PSGL-1 (P-Selectin Glycoprotein Ligand-1) on cells (human) (UniProt Q14242); experiment: FACS, whole blood sample #1, monocytes, 1 µg scFv
T1 sequence (looked up): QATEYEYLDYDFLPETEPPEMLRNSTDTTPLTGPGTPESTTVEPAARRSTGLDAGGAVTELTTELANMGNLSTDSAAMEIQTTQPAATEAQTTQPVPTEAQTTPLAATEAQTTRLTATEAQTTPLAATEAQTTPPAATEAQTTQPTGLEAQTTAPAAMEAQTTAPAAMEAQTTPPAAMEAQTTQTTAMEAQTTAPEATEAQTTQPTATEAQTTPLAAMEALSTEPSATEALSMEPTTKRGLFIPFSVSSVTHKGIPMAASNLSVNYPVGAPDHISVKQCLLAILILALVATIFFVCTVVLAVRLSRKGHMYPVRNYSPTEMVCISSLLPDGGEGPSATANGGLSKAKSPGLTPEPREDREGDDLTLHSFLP

[3] = biological target: T1, PSGL-1 (P-Selectin Glycoprotein Ligand-1) on cells (human); experiment: FACS, whole blood sample #1, granulocytes, 1 µg scFv
[4] = biological target: T1, PSGL-1 (P-Selectin Glycoprotein Ligand-1) on cells (human); experiment: FACS, whole blood sample #1, monocytes, 0.1 µg scFv
[5] = biological target: T1, PSGL-1 (P-Selectin Glycoprotein Ligand-1) on cells (human); experiment: FACS, whole blood sample #2, monocytes, 0.1 µg scFv
[6] = biological target: T1, PSGL-1 (P-Selectin Glycoprotein Ligand-1) on cells (human); experiment: FACS, whole blood sample #2, granulocytes, 0.5 µg scFv
[7] = biological target: T1, PSGL-1 (P-Selectin Glycoprotein Ligand-1) on cells (human); experiment: FACS, whole blood sample #1, lymphocytes, 0.1 µg scFv
[8] = biological target: T2, CCR5 (residues 1-18) derived peptide sulfated at 1st tyrosine position; experiment: ELISA on coated peptide
T2 sequence (peptide, sulfated at 1st tyrosine position): MDYQVSSPIYDINYYTSE

[9] = biological target: T3, GPIb (residues 268-285) derived peptide sulfated at 1st tyrosine position; experiment: ELISA on coated peptide
T3 sequence (peptide, sulfated at 1st tyrosine position): GDEGDTDLYDYYPEEDTE

[10] = biological target: T4, PSGL-1 (residues 42-58) derived peptide sulfated at 3rd tyrosine position; experiment: ELISA on coated peptide
T4 sequence (peptide, sulfated at 3rd tyrosine position): QATEYEYLDYDFLPETE

[11] = biological target: T5, CCR5 (residues 1-18) derived peptide sulfated at 2nd tyrosine position; experiment: ELISA on coated peptide
T5 sequence (peptide, sulfated at 2nd tyrosine position): MDYQVSSPIYDINYYTSE

[12] = biological target: T6, PSGL-1 (residues 42-58) derived peptide sulfated at 1st tyrosine position; experiment: ELISA on coated peptide
T6 sequence (peptide, sulfated at 1st tyrosine position): QATEYEYLDYDFLPETE

[13] = biological target: T7, PSGL-1 (residues 42-58) derived peptide sulfated at 2nd tyrosine position; experiment: ELISA on coated peptide
T7 sequence (peptide, sulfated at 2nd tyrosine position): QATEYEYLDYDFLPETE

[14] = biological target: T8, CCR5 (residues 1-18) derived peptide sulfated at 3rd tyrosine position; experiment: ELISA on coated peptide
T8 sequence (peptide, sulfated at 3rd tyrosine position): MDYQVSSPIYDINYYTSE

[15] = biological target: T9, GPIb (residues 268-285) derived peptide sulfated at 3rd tyrosine position; experiment: ELISA on coated peptide
T9 sequence (peptide, sulfated at 3rd tyrosine position): GDEGDTDLYDYYPEEDTE

[16] = biological target: T1, PSGL-1 (P-Selectin Glycoprotein Ligand-1) on cells (human); experiment: FACS, whole blood sample #2, monocytes, 0.5 µg scFv
[17] = biological target: T1, PSGL-1 (P-Selectin Glycoprotein Ligand-1) on cells (human); experiment: FACS, whole blood sample #2, granulocytes, 0.1 µg scFv
[18] = biological target: glycocalicin (UniProt P07359); experiment: SPR (BIAcore 3000), glycocalicin immobilized on CM5 chip
glycocalicin, sequence (P07359 17-531 limits assumed): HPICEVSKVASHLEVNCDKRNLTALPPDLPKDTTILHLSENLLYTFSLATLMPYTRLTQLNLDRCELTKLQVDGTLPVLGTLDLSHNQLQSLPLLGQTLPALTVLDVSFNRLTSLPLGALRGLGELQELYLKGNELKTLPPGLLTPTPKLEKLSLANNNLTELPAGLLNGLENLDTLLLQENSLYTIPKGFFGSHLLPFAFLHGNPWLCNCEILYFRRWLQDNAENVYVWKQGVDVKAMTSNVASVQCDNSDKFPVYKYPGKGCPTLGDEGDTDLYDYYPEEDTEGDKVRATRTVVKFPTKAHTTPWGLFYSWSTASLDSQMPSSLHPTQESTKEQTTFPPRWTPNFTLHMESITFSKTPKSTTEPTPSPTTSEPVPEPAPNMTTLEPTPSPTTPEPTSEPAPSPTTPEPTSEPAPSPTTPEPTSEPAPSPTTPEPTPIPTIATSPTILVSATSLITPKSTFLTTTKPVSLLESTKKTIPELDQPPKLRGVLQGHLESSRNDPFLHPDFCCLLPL

[19] = biological target: T1, PSGL-1 (P-Selectin Glycoprotein Ligand-1) on cells (human); experiment: FACS, whole blood sample #2, lymphocytes, 0.5 µg scFv
[20] = biological target: T1, PSGL-1 (P-Selectin Glycoprotein Ligand-1) on cells (human); experiment: FACS on ML-2 cells in 50% plasma, purified scFv
[21] = biological target: T1, PSGL-1 (P-Selectin Glycoprotein Ligand-1) on cells (human); experiment: FACS, whole blood sample #1, granulocytes, 0.1 µg scFv
[22] = biological target: GPIb on human platelets (human) (UniProt P07359); experiment: FACS on platelets in PRP, 1 µg scFv; mean of PRP samples #1 and #2, 1 µg scFv
[23] = biological target: T1, PSGL-1 (P-Selectin Glycoprotein Ligand-1) on cells (human); experiment: FACS, whole blood sample #2, granulocytes, 1 µg scFv
[24] = biological target: GPIb on human platelets (human) (UniProt P07359); experiment: FACS on platelets, PRP sample #1, 1 µg scFv; PRP sample #1, 1 µg scFv
[25] = biological target: T1, PSGL-1 (P-Selectin Glycoprotein Ligand-1) on cells (human); experiment: FACS, whole blood sample #1, lymphocytes, 1 µg scFv
[26] = biological target: T1, PSGL-1 (P-Selectin Glycoprotein Ligand-1) on cells (human); experiment: FACS, whole blood sample #1, lymphocytes, 0.5 µg scFv
[27] = biological target: T1, PSGL-1 (P-Selectin Glycoprotein Ligand-1) on cells (human); experiment: FACS, whole blood sample #2, lymphocytes, 1 µg scFv
[28] = biological target: T1, PSGL-1 (P-Selectin Glycoprotein Ligand-1) on cells (human); experiment: FACS, whole blood sample #2, lymphocytes, 0.1 µg scFv
[29] = biological target: T1, PSGL-1 (P-Selectin Glycoprotein Ligand-1) on cells (human); experiment: FACS, whole blood sample #1, monocytes, 0.5 µg scFv
[30] = biological target: GPIb on guinea pig platelets (guinea pig); experiment: cell-based or functional assay
[31] = biological target: GPIb on human platelets (human) (UniProt P07359); experiment: FACS on platelets, PRP sample #1, 2 µg scFv; PRP sample #1, 2 µg scFv
[32] = biological target: GPIb on human platelets (human) (UniProt P07359); experiment: FACS on platelets, PRP sample #2, 1 µg scFv; PRP sample #2, 1 µg scFv
[33] = biological target: T1, PSGL-1 (P-Selectin Glycoprotein Ligand-1) on cells (human); experiment: FACS, whole blood sample #2, monocytes, 1 µg scFv
[34] = biological target: T1, PSGL-1 (P-Selectin Glycoprotein Ligand-1) on cells (human); experiment: FACS on ML-2 cells in PBS, purified scFv
[35] = biological target: T1, PSGL-1 (P-Selectin Glycoprotein Ligand-1) on cells (human); experiment: FACS, whole blood sample #1, granulocytes, 0.5 µg scFv
[36] = biological target: T10, CCR5 (residues 1-18) derived peptide, non-sulfated; experiment: ELISA on coated peptide
T10 sequence (peptide): MDYQVSSPIYDINYYTSE

[37] = biological target: T11, PSGL-1 (residues 42-58) derived peptide, non-sulfated; experiment: ELISA on coated peptide
T11 sequence (peptide): QATEYEYLDYDFLPETE

[38] = biological target: T12, GPIb (residues 268-285) derived peptide, non-sulfated; experiment: ELISA on coated peptide
T12 sequence (peptide): GDEGDTDLYDYYPEEDTE

[39] = biological target: GPIb on guinea pig platelets (guinea pig); experiment: FACS on guinea pig platelets

GPIb on human platelets (human), sequence (P07359 17-652): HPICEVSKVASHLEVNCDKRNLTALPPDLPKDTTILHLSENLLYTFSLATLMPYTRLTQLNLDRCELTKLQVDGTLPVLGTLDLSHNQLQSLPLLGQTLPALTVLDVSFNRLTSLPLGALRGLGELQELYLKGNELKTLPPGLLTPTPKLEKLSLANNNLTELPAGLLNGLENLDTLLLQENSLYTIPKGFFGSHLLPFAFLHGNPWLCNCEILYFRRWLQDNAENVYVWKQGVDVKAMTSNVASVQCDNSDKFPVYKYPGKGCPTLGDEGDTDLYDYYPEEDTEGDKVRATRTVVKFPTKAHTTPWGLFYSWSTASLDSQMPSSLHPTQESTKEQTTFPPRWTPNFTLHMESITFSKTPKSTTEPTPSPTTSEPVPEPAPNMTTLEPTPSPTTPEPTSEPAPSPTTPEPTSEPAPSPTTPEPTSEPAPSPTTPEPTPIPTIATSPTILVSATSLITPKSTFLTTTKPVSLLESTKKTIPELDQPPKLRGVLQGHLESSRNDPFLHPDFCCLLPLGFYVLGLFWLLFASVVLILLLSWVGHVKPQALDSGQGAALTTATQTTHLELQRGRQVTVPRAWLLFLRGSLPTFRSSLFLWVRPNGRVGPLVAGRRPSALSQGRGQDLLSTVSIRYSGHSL

B1: S15 scFv (scFv)
scFv: EVQLVESGGGVVRPGGSLRLSCAASGFTFDLNPKVKHMWVRQAPGKGLEWVSGINWNGGSTGYADSVKGRFTISRDNAKNSLYLQMNSLRAEDTAVYYCARLRRPSIWGQGTLVTVSRGGGGSGGGGSGGGGSSELTQDPAVSVALGQTVRITCQGDSLRSYYASWYQQKPGQAPVLVIYGKNNRPSGIPDRFSGSSSGNTASLTITGAQAEDEADYYCNSRDSSGNHVVFGGGTKLTVLGAAAEQKLISEEDLNGAA
[1]
  Geo Mean: 68
[2]
  Geo Mean: 290
[3]
  Geo Mean: 150
[4]
  Geo Mean: 56
[5]
  Geo Mean: 69
[6]
  Geo Mean: 151
[7]
  Geo Mean: 36
[8]
  ELISA reading at 450 nm: 0.12
[9]
  ELISA reading at 450 nm: 0.6
[10]
  ELISA reading at 450 nm: 0.6
[11]
  ELISA reading at 450 nm: 0.3
[12]
  ELISA reading at 450 nm: 0.02
[13]
  ELISA reading at 450 nm: 0.2
[14]
  ELISA reading at 450 nm: 0.16
[15]
  ELISA reading at 450 nm: 0.3
[16]
  Geo Mean: 248
[17]
  Geo Mean: 44
[18]
  Kd: 180 nM
  koff: 0.43 s⁻¹
[19]
  Geo Mean: 78
[20]
  fold binding compared to L32 and Y1: > 10 fold
[21]
  Geo Mean: 26
[22]
  average geo mean of both PRP samples: 26
[23]
  Geo Mean: 220
[24]
  Geo Mean: 30
[25]
  Geo Mean: 120
[26]
  Geo Mean: 81
[27]
  Geo Mean: 112
[28]
  Geo Mean: 18
[29]
  Geo Mean: 192
[30]
  inhibition of guinea pig platelet aggregation, IC50: 80 to 160 µg/mL
[31]
  Geo Mean: 120
[32]
  Geo Mean: 23
[33]
  Geo Mean: 340
[34]
  fold binding compared to L32 and Y1: > 100 fold
[35]
  Geo Mean: 100

B2: S1 scFv (scFv, from a related filing)
scFv: B1 scFv with R104P, S106F, I107L
[8]
  ELISA reading at 450 nm: 0.07
[9]
  ELISA reading at 450 nm: 0.8
[10]
  ELISA reading at 450 nm: 0.8
[11]
  ELISA reading at 450 nm: 0.3
[12]
  ELISA reading at 450 nm: 0.1
[13]
  ELISA reading at 450 nm: 0.08
[36]
  ELISA reading at 450 nm: 0.06
[37]
  ELISA reading at 450 nm: 0.07
[14]
  ELISA reading at 450 nm: 0.07
[38]
  ELISA reading at 450 nm: 0.07
[15]
  ELISA reading at 450 nm: 0.15
[39]
  fold binding capacity relative to Y1: 25 fold

B3: S11 scFv (scFv, from a related filing)
scFv: B1 scFv with R104Y, S106F, I107F
[8]
  ELISA reading at 450 nm: 0.12
[9]
  ELISA reading at 450 nm: 0.6
[10]
  ELISA reading at 450 nm: 0.7
[11]
  ELISA reading at 450 nm: 0.7
[12]
  ELISA reading at 450 nm: 0.16
[13]
  ELISA reading at 450 nm: 0.12
[36]
  ELISA reading at 450 nm: 0.08
[37]
  ELISA reading at 450 nm: 0.01
[14]
  ELISA reading at 450 nm: 0.11
[38]
  ELISA reading at 450 nm: 0.1
[15]
  ELISA reading at 450 nm: 0.3
[39]
  fold binding capacity relative to Y1: 25 fold
